Data on three molecules can be found in patent US20030073818A1 (MEDICAL COLLEGE OF GEORGIA RESEARCH INSTITUTE, published 2003).

B1: D1 receptor:GAL4 binding domain fusion protein pGBTD1421-435 (other, yeast;human, UniProt P04386 1-147, looked up)
chain: MKLLSSIEQACDICRLKKLKCSKEKPKCAKCLKNNWECRYSPKTKRSPLTRAHLTEVESRLERLEQLFLLIFPREDLDMILKMDSLQDIKALLTGLFVQDNVNKDAVTDRLASVETDMPLTLRQHRISATSSSEESSNKGQRQLTVSSVILDYDTDVSLEKI
B2: Calcyon:GAL4 AD fusion protein (encoded by pACTCalcyon) (other, not shown: large carriers)
chain: MVKLGCSFSGKPGKDPGDQDGAAMDSVPLISPLDISQLQPPLPDQVVIKTQTEYQLSSPDQQNFPDLEGQRLNCSHPEEGRRLPTARMIAFAMALLGCVLIMYKAIWYDQFTCPDGFLLRHKICTPLTLEMYYTEMDPERHRSILAAIGAYPLSRKHGTETPAAWGDGYRAAKEERKGPTQAGAAAAATEPPGKPSAKAEKEAARKAAGSAAPPPAQ
notes: Library clone from a human brain cDNA:GAL4 AD library; The 936 bp insert holds the whole 217 residue ORF; also called pACTP24; clone K37
B3: GAL4 Activation Domain (AD) protein encoded on the vector pGAD424 (other, yeast, UniProt P04386 768-881, looked up)
chain: ANFNQSGNIADSSLSFTFTNSSNGPNLITTQTNSQALSQPIASSNVHDNFMNNEITASKIDDGNNSKPLSPGWTDQTAYNAFGITTGMFNTTTMDDVYNYLFDDEDTPPNPKKE

The target of test [1] is B2. Kind of test: yeast two-hybrid.
The target in test [2] is T1, D1/GAL4 BD fusion protein (hD1 receptor residues 365-446 fused to the GAL4 DNA binding domain, pGBTD1) (yeast; human, UniProt P04386 1-147; P21728 365-446).
T1 construct: D1 segment is at the 3' end of the GAL4 BD open reading frame; also called pGBTD1365-446; D1:GAL4 fusion protein
Kind of test: yeast two-hybrid.

Test [3] concerns the target T1, D1/GAL4 BD fusion protein (hD1 receptor …). Kind of test: yeast two-hybrid, X-Gal colony filter assay.
Description: A nitrocellulose filter was placed on the plate to transfer the colonies to the filter. Cells were permeabilized by freezing in liquid nitrogen, and then soaked in buffer containing X-Gal.

With B1, the binding result in test [1] is listed as “binds”.

In the case of B2, in test [2], the binding result is listed as “binds”. Take B3: the binding result in test [3] is “no binding”.
